{"source": "paper PMC6175910", "binders": {"B1": {"name": "Usfork_T10 upstream fork promoter DNA (dsDNA)", "DNA 1": "GCTTGACAAAAGTGTTAAATTGTGCTATACT", "DNA 2": "AGCACAATTTAACACTTTTGTCAAGC"}}, "key": {"[1]": {"target": "Msm RbpA/sigmaA RNAP holoenzyme (wild type) (Mycobacterium smegmatis (strain MGM6029), UniProt A0QSL8;P60281;A0QS66;A0QWT1;A0QW02;A0QZ11 1-350;1-1169;1-1317;1-107;1-466;1-114)", "assay": "X-ray crystallography (3.05 A); Rif soaked in; Footprinting: 10 mM Tris-HCl pH 8, 10 mM K-glutamate, 5 mM MgCl2, 0.1 mM DTT, 15 ug/mL BSA, 37 C, 400 nM RNAP; crystals: 0.1 M Bis-Tris pH 6.0, 0.2 M LiSO4, 16% PEG 3350, 2.5% ethylene glycol, 22 C", "conditions": "protein: recombinant; tags: beta' C-terminal ppx-His10; chain copies: 2;1;1;1;1;1; 3' overhang 5 nt on strand 1 (upstream fork), other end blunt"}, "[2]": {"target": "Msm RbpA/sigmaA RNAP holoenzyme, beta S447L (Mycobacterium smegmatis (strain MGM6029), UniProt A0QSL8;P60281;A0QS66;A0QWT1;A0QW02;A0QZ11 1-350;1-1169;1-1317;1-107;1-466;1-114, S447L)", "assay": "X-ray crystallography (3.45 A); Kang A soaked in; Footprinting: 10 mM Tris-HCl pH 8, 10 mM K-glutamate, 5 mM MgCl2, 0.1 mM DTT, 15 ug/mL BSA, 37 C, 400 nM RNAP; crystals: 0.1 M Bis-Tris pH 6.0, 0.2 M LiSO4, 16% PEG 3350, 2.5% ethylene glycol, 22 C", "conditions": "protein: recombinant; tags: beta' C-terminal ppx-His10; chain copies: 2;1;1;1;1;1"}}}
{"binder": "B1", "values": [{"measurement": "binding result", "setting": "[1]", "value": "binds"}, {"measurement": "binding result", "setting": "[2]", "value": "binds"}]}
